In US20170146518A1 (CENTRE NATIONAL DE LA RECHERCHE SCIENTIFIQUE CNRS, published 2017):
Non-standard residues stand in square brackets, D forms with d. No end group written: not given here. pGlu = O=C1CC[C@@H](C(=O)O)N1; Nle = CCCC[C@H](N)C(=O)O

Columns and labels:
[1] = target: T1, APJ (endogenous, in patient-derived GSCs) (human, UniProt P35414 1-380); experiment: radioactive binding assay in GSCs using GP130-siRNA and anti-GP130 antibodies
T1 construct: Endogenous receptor of patient-derived glioblastoma stem-like cells, tested on intact cells, in membrane preparations or in lysates; also called Apelin receptor; APLNR
T1 sequence: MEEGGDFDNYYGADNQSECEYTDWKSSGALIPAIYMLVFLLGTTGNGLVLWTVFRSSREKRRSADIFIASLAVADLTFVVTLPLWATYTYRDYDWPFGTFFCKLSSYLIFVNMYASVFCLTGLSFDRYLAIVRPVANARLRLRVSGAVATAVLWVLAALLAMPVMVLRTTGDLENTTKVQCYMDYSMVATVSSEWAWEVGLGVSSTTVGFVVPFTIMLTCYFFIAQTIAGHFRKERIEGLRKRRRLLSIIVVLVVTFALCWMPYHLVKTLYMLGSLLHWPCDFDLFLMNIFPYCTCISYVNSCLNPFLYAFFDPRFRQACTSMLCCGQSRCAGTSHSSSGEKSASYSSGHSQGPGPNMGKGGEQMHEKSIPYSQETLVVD
Protocol: Prior to binding experiments, 2×10⁶ GSCs were washed three times with DMEM/F12, and resuspended in binding buffer (DMEM/F12, 40 mM HEPES, 1% BSA). In order to determine the amount of nonspecific binding, 1 μM unlabeled [<Glu⁶⁵, Nle⁷⁵, Tyr⁷⁷]apelin-13 was added. Cells were pre-incubated with GP130 blocking antibody (2 μg/ml) when indicated. Cells were then incubated with 400 pM [¹²⁵I][<Glu⁶⁵,Nlc⁷⁵,Tyr⁷⁷]apelin-13 in agitation for 6 h at 4° C., and radioactivity was measured with a gamma counter (Beckman).

[2] = target: T2, HA-APJ (transfected in HEK-293T cells) (human, UniProt P35414 1-380); experiment: radioligand binding, membranes of HEK-293T transfected with APJ or with APJ and GP130
T2 construct: HA-APJ construct from Dr. L. Zheng (Chun et al., 2008); also called APJ-HA; APJ-expression plasmid; not shown: HA tag
T2 sequence: T1 sequence
Protocol: Homogenates were cleared by 5 min centrifugation at 3000 rpm. Then cells were resuspended in binding buffer ([…] Hepes, 5 mM MgCl2 and 1% BSA) and ultracentrifuged to obtain cell membranes. Membranes were then incubated with [125I][<Glu65,Nle75,Tyr77]apelin-13 (Perkin Elmer) in 100 μl of the binding buffer at room temperature for 90 min. In order to determine the amounts of nonspecific binding, unlabeled [<Glu65,Nle75,Tyr77] apelin-13 (Sigma) was simultaneously added After incubation, bound and free radioactivities were separated through rapid filtration using the glass-fiber filter units (GF/C, Packard Instrument Co.) of a cell harvester (Packard). Filter units were completely dried, and Microcinti O (Packard) was added to each well. The radioactivity of each well was counted with a TopCount liquid scintillation counter (Packard). The dissociation constant (Kd) and the number of binding sites (B max) were determined by the method of Scatchard.

- binding result [1]: binds
- binding result [2]: binds
B1: [125I][<Glu65,Nle75,Tyr77]apelin-13 (peptide)
peptide: [pGlu]RPRLSHKGP[Nle]PY
modifications: also: 125I label, place not given here
